Read-outs that look alike come from different tables or passages of the source. Where no end group is shown, it is not given here.
B1: fluorescent ligand 16 (Cy3B-labeled cyclic hexapeptide) (peptide)
peptide: RYRLRY-NH2
modifications: not fully specified (bridges); also: Cy3B conjugated to the amine of the cyclic precursor peptide 6, N^ω-carbamoylated arginine in the ring, position not given here
notes: structure drawn in Scheme 2; source: synthetic peptide: from precursor peptide 6 and Cy3B succinimidyl ester (12), preparative HPLC
B2: fluorescent ligand 17 (Sulfo-Cy5-labeled cyclic hexapeptide) (peptide)
peptide: RYRLRY-NH2
modifications: also: Sulfo-Cy5 (S0223) conjugated to the amine of the cyclic precursor peptide 6, N^ω-carbamoylated arginine in the ring, position not given here
notes: peptide part as in m6; structure drawn in Scheme 2; source: synthetic peptide: from precursor peptide 6 and the succinimidyl ester 13 (S0586) of Sulfo-Cy5 (S0223), preparative HPLC
B3: fluorescent ligand 18 (Py-1-labeled cyclic hexapeptide) (peptide)
peptide: RYRLRY-NH2
modifications: also: Py-1 cyanine dye on the amine of a carbamoylated Arg in the ring, position not given here, cyclic, ring closure not given here
notes: peptide part as in m6; structure drawn in Scheme 2; source: synthetic peptide: from precursor peptide 6 and the pyrylium dye Py-1 (14), preparative HPLC
B4: fluorescent ligand 19 (Py-5-labeled cyclic hexapeptide) (peptide)
peptide: RYRLRY
modifications: not fully specified; as 11; the alkyne of the carbamoylated arginine in position 1 joined by click chemistry (triazole) to the azido-functionalized pyridinium-type cyanine dye 15 (from Py-5); C-terminal amide
notes: peptide chain as in 11, whose linear precursor 10 is printed in three-letter code at h-0020; 19 is made from 11 and dye 15; source: synthetic peptide: from 11 and the azido-functionalized dye 15 by copper(I)-catalyzed click reaction, preparative HPLC

Experiments:
hY4R [1] = biological target: T1, hY4R (Homo sapiens, UniProt P50391); set-up: expressed in transfected cells; host or cells: CHO (co-expressing Gqi5 and mitochondrially targeted aequorin); conditions: cited from earlier work
hY1R = biological target: T2, hY1R (Homo sapiens, UniProt P25929); experiment: Y1R radioligand competition binding, whole SK-N-MC cells, [3H]UR-MK299; conditions: SK-N-MC neuroblastoma cells, [3H]UR-MK299 c = […]; read-out: pKi ± SEM hY1R (converted)
T2 construct: host or cells: SK-N-MC neuroblastoma cells
T2 sequence (P25929 1-384): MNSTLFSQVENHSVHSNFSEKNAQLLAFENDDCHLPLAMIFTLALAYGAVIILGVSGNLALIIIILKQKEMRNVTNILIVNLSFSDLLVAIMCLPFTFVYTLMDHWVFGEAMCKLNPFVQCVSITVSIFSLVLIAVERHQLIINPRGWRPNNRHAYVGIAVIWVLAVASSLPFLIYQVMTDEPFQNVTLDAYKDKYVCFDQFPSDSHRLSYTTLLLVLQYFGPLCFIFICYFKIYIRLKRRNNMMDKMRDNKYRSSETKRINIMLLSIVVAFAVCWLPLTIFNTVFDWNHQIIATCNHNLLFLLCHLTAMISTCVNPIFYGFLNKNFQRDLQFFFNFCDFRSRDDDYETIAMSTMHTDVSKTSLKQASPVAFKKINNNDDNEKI
Experimental: (§1) All radioligand binding assays were performed at intact Y receptor expressing cells at 23 ± 2 °C.
Competition binding assays at Y1R-expressing SK-N-MC neuroblastoma cells were performed as previously described using [^3H]UR-MK299 as radioligand (concentration: 0.15 nM).[33] […] (logarithmic form in the case of pKi values).

hY2R = biological target: T3, hY2R (Homo sapiens, UniProt P49146); experiment: Y2R radioligand competition binding, whole CHO-hY2R cells, [3H]propionyl-pNPY; conditions: read-out: pKi ± SEM hY2R (converted)
T3 construct: host or cells: CHO
T3 sequence (P49146 1-381): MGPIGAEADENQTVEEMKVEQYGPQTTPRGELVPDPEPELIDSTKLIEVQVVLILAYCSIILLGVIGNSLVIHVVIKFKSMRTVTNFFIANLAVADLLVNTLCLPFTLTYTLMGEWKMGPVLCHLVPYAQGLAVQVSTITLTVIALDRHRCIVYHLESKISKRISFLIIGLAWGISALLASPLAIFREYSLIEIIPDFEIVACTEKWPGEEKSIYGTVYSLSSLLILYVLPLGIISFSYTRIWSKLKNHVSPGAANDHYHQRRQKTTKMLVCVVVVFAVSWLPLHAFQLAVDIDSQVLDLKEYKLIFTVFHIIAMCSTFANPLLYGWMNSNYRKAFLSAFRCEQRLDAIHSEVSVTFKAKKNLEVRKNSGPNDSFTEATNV
Experimental: as §1

hY5R = biological target: T4, hY5R (Homo sapiens, UniProt Q15761); experiment: Y5R radioligand competition binding, whole HEC-1B-hY5R cells, [3H]propionyl-pNPY; conditions: [3H]propionyl-pNPY c = 5 nM
T4 construct: expressed in transfected cells; host or cells: HEC-1B (human endometrial cancer)
T4 sequence (Q15761 1-445): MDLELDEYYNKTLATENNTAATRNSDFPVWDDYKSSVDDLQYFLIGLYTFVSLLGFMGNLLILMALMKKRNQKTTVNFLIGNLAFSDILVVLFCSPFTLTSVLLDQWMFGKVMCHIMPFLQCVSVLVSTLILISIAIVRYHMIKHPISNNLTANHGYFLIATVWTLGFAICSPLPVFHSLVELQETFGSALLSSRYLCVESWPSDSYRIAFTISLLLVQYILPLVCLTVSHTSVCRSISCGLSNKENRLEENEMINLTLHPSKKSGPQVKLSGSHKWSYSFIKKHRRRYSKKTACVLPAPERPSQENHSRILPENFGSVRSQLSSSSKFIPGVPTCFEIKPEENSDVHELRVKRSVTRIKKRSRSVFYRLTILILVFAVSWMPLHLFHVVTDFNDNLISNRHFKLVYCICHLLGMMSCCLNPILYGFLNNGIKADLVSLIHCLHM
Experimental: as §1
(logarithmic form in the case of pKi values).

Y4R = Y4R (Homo sapiens, UniProt P50391); experiment: Y4R miniGsi recruitment assay (HEK293T-NlucN-mGsi/Y4R-NlucC cells); type: cell-based; set-up: expressed in transfected cells; host or cells: HEK293T; conditions: read-out: miniGsi recruitment Emax ± SEM; further: relative to 1 µM hPP (100%)
Experimental: Furimazine was used as nanoluciferase substrate. The original stock was diluted 1:1000 in L15-HEPES to obtain the feed solution for the assay. Data analysis was performed based on the areas under the curves (time window: 45 min starting with the agonist addition) using GraphPad Prism 5. […] Efficacies Emax correspond to the upper plateaus of the normalized concentration–response curves.

hY4R [2] = biological target: T1, hY4R; experiment: Y4R Ca2+ aequorin assay (CHO-hY4R-Gqi5-mtAEQ cells); type: cell-based; set-up: expressed in transfected cells; host or cells: CHO (co-expressing Gqi5 and mitochondrially targeted aequorin); conditions: for EC50: CHO-hY4R-Gqi5-mtAEQ cells, agonist mode, read-out: Ca2+-aequorin pEC50 ± SEM (converted); for Emax: read-out: Ca2+-aequorin Emax ± SEM
Experimental: The assay was performed with live CHO-hY4R-Gqi5-mtAEQ cells as previously described (used buffer: buffer III). Measurements were carried out on a Tecan Infinite Lumi plate reader. Data analysis was performed as reported using GraphPad Prism 5 for the calculation of the area under the curve. […] Efficacies Emax correspond to the upper plateaus of the normalized concentration–response curves.

[3] = Chemical stability in PBS pH 7.4; type: physicochemical
Experimental: The chemical stability of the fluorescent ligands 16, 17, and 18 was investigated in PBS (adjusted to pH 7.4) at 22 °C. […] After time periods of 0, 6, and 48 h, an aliquot (25 μL) was withdrawn and added to 25 μL of acetonitrile/0.04% aq. TFA 1:9 v/v to obtain a peptide solution with a concentration of 50 μM. 20 μL of this solution were subjected to analytical RP-HPLC analysis using the same system and conditions as described under Analytical HPLC, but applying a different linear gradient: 0–14 min: A/B 90:10–45:55, 14–15 min: 45:55–5:95, 15–19 min: 5:95 (isocratic). A 1:1 mixture of PBS and acetonitrile/0.04% aq. TFA 1:9 v/v (20 μL) was analyzed to obtain the blank chromatogram.

[4] = biological target: human neuropeptide Y Y1 receptor (human) (UniProt P25929); experiment: radioligand binding; competition with [^3H]UR-MK299 ([…]) at intact SK-N-MC cells, 23 ± 2 °C, buffer II (150 mM NaCl)
[5] = biological target: human neuropeptide Y Y5 receptor (human) (UniProt Q15761); experiment: radioligand binding; competition with [^3H]propionyl-pNPY (5 nM) at intact HEC-1B-hY5R cells, 23 ± 2 °C, buffer II (150 mM NaCl)
[6] = biological target: T5, human neuropeptide Y Y2 receptor (human, UniProt P49146 1-381); experiment: radioligand binding; competition with [^3H]propionyl-pNPY (0.5 nM) at intact CHO-hY2R cells, 23 ± 2 °C, buffer I (sodium-free); conditions: one partner purified
T5 construct: also called hY2R; source: CHO-hY2R cells (from PerkinElmer), intact cells
T5 sequence (looked up): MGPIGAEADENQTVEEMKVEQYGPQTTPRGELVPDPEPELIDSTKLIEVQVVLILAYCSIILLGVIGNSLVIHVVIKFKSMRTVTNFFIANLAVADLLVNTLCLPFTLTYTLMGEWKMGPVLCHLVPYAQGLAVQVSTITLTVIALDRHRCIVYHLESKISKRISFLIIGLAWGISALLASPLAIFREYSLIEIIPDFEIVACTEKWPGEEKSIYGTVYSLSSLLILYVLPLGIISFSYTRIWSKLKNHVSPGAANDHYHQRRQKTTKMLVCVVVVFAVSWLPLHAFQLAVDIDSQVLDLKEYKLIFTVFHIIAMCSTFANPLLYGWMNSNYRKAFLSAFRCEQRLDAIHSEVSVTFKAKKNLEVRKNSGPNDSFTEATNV

[7] = biological target: T6, human neuropeptide Y Y4 receptor (wild-type, CHO-hY4R-Gqi5-mtAEQ cells) (human, UniProt P50391 1-375); experiment: flow cytometry on cells; association (0.7 nM 16, 1 nM 17, 0.5 nM 18) and dissociation (started with excess hPP and 5) at CHO-hY4R-Gqi5-mtAEQ cells, DPBS (137 mM Na^+), 22 ± 2 °C; monophasic and biphasic fits; Kd(kin) = koff/kon; conditions: one partner purified
T6 construct: The cells also express Gqi5 and mitochondrially targeted aequorin; also called wild-type Y4R

[8] = biological target: T6, human neuropeptide Y Y4 receptor …; experiment: cell-based or functional assay

Molecule	Kd (hY4R [1])	pKi [4]	pKi [5]	pKi [6]	kobs(bi,fast) [7]	kobs(bi,slow) [7]	kobs(mono) [7]	also measured
1: Sulfo-Cy5-labeled [K^4,Nle^17,30]hPP, reported Y4R fluorescent ligand [Compound 1]	11 nM	–	–	–	–	–	–	–
2: 5-TAMRA-labeled [K^18,Nle^17,30]hPP, reported Y4R fluorescent ligand [Compound 2]	26 nM	–	–	–	–	–	–	–
C#CCCCCNC(=O)N=C(N)NCCC[C@@H]1NC(=O)CCC(=O)NCCCCNC(=O)N=C(N)NCCC[C@@H](C(=O)N[C@@H](CC(C)C)C(=O)N[C@@H](CCCNC(=N)N)C(=O)N[C@@H](Cc2ccc(O)cc2)C(N)=O)NC(=O)[C@H](Cc2ccc(O)cc2)NC1=O [Compound 11, (9S,12S,15S,E)-4-Amino-N-{(S)-1-[((S)-1-{[(S)-1-amino-3-(4-hydroxyphenyl)-1-oxopropan-2-yl]amino}-5-guanidino-1-oxopentan-2-yl)amino]-4-methyl-1-oxopentan-2-yl}-15-{3-[(E)-2-(hex-5-yn-1-ylcarbamoyl)guanidino]propyl}-12-(4-hydroxybenzyl)-2,11,14,17,20-pentaoxo-1,3,5,10,13,16,21-heptaazacyclopentacos-3-ene-9-carboxamide Tris(hydrotrifluoroacetate)]	–	–	–	–	–	–	–	Ki (hY1R): > 10000 nM; Ki (hY2R): > 10000 nM; Ki (hY5R; read-out: Ki hY5R (converted)): > 3000 nM; Ki (hY5R; read-out: pKi ± SEM hY5R (converted)): > 3160 nM; Emax (Y4R): 62 ± 1%; EC50 (hY4R [2]): 97.7 nM; Emax (hY4R [2]): 56 ± 3%
Cc1cc(/C=C/c2cc3c4c(c2)CCCN4CCC3)cc(C)[n+]1CCCC(=O)N[C@@H]1CC(=O)N[C@@H](CCCNC(=N)N)C(=O)N[C@@H](Cc2ccc(O)cc2)C(=O)N[C@H](C(=O)N[C@@H](CC(C)C)C(=O)N[C@@H](CCCNC(=N)N)C(=O)N[C@@H](Cc2ccc(O)cc2)C(N)=O)CCCNC(N)=NC(=O)NCCCCNC1=O [Compound 18]	–	–	–	–	–	–	–	Ki (hY1R): > 1000 nM; Ki (hY2R): > 1000 nM; Ki (hY5R; read-out: Ki hY5R (converted)): 840 nM; time with marginal degradation ([3]; PBS pH 7.4 (10% DMSO), room temperature): ≥ 6 h; chemical stability ([3]; PBS pH 7.4, room temperature, 48 h, 100 μM): slow decomposition; Emax (Y4R): 44 ± 2%; EC50 (hY4R [2]): 50.1 nM; Emax (hY4R [2]): 61 ± 5%
Sulfo-Cy5-[K^4]hPP: Sulfo-Cy5-labeled [K^4]hPP, reported fluorescent Y4R ligand (APLKPVYPGDNATPEQMAQYAADLRRYINMLTRPRY; not fully specified)	5.6 nM	–	–	–	–	–	–	–
B1	–	6.91	6.32	< 6	1 min⁻¹	0.048 min⁻¹	0.18 min⁻¹	–
B2	–	< 6	< 6	< 6	1.89 min⁻¹	0.071 min⁻¹	0.15 min⁻¹	–
B3	–	< 6	6.08	< 6	0.7 min⁻¹	0.034 min⁻¹	0.1 min⁻¹	–
B4	–	< 6	< 6	< 6	–	–	–	EC50, Ca^2+-aequorin assay (CHO-hY4R-Gqi5-mtAEQ cells) [8]: 58 nM

From paper PMC11019746 (ACS Pharmacology & Translational Science, 2024)
